PMC10299155, “Single-Molecule Analysis of the Improved Variants of the G-Quadruplex Recognition Protein G4P”

Key:
[1] = tested on: T1, G4P (artificial (RSM derived from human RHAU/DHX36)); assay: smTIRFM (koff/kon); conditions: EMSA: DNA annealed in 200 mM Tris pH 7.4, 100 mM KCl, 1 mM EDTA; binding 10 min at 25 C, native PAGE; smTIRFM: 100 pM tethered DNA, 100-5000 pM protein, buffer …
T1 sequence: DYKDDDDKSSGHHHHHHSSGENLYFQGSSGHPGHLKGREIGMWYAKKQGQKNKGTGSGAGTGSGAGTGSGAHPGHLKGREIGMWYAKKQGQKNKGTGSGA

[2] = tested on: T2, 2FJG4P (artificial (motif derived from human FANCJ)); assay: smTIRFM (koff/kon); conditions: EMSA: DNA annealed in 200 mM Tris pH 7.4, 100 mM KCl, 1 mM EDTA; binding 10 min at 25 C, native PAGE; smTIRFM: 100 pM tethered DNA, 100-5000 pM protein, buffer …
T2 sequence: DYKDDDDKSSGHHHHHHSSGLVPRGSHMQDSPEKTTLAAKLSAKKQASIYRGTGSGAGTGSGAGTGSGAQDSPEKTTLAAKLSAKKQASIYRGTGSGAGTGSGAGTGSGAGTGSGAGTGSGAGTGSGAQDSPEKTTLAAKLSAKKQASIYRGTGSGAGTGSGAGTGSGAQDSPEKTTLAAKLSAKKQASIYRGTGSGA

[3] = tested on: T3, FJG4P (artificial (motif derived from human FANCJ)); assay: smTIRFM (koff/kon); conditions: EMSA: DNA annealed in 200 mM Tris pH 7.4, 100 mM KCl, 1 mM EDTA; binding 10 min at 25 C, native PAGE; smTIRFM: 100 pM tethered DNA, 100-5000 pM protein, buffer …
T3 sequence: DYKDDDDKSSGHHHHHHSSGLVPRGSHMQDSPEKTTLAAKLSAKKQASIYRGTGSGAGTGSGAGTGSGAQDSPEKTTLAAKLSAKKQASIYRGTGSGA

2FJG4P [4] = target: T4, 2FJG4P (artificial (motif derived from human …)); assay: mass photometry; largest network size; EMSA: DNA annealed in 200 mM Tris pH 7.4, 100 mM KCl, 1 mM EDTA; binding 10 min at 25 C, native PAGE; smTIRFM: 100 pM tethered DNA, 100-5000 pM protein, buffer; conditions: protein: recombinant; tags: N-terminal FLAG-6xHis; two G4s, mixed topology
T4 chain: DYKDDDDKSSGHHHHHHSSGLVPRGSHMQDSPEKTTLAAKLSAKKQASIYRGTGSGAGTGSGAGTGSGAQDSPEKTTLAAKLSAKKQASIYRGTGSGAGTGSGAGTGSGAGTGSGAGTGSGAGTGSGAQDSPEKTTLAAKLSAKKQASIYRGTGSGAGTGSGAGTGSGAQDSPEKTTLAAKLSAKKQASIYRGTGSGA

2G4P [5] = target: T5, 2G4P (artificial (RSM derived from human …)); assay: mass photometry; higher molecular weight complexes; EMSA: DNA annealed in 200 mM Tris pH 7.4, 100 mM KCl, 1 mM EDTA; binding 10 min at 25 C, native PAGE; smTIRFM: 100 pM tethered DNA, 100-5000 pM protein, buffer; conditions: protein: recombinant; tags: N-terminal FLAG-6xHis; two G4s, mixed topology
T5 chain: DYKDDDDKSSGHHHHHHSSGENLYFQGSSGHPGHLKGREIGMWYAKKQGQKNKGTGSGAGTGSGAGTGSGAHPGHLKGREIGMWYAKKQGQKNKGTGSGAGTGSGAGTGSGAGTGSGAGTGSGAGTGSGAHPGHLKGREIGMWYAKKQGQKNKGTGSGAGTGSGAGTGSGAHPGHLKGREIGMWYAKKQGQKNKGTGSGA

2G4P [6] = target: T5, 2G4P; assay: smTIRFM (koff/kon); kon 3.9e9 M-1 s-1, koff 0.62 s-1; EMSA: DNA annealed in 200 mM Tris pH 7.4, 100 mM KCl, 1 mM EDTA; binding 10 min at 25 C, native PAGE; smTIRFM: 100 pM tethered DNA, 100-5000 pM protein, buffer; conditions: protein: recombinant; tags: N-terminal FLAG-6xHis; label: 3' biotin on strand 2; 18 bp duplex with 3' ssDNA tail folded as parallel G4
G4P [7] = target: T6, G4P (artificial (RSM derived from human …)); assay: smTIRFM (koff/kon); kon 2.16e9 M-1 s-1, koff 0.61 s-1; EMSA: DNA annealed in 200 mM Tris pH 7.4, 100 mM KCl, 1 mM EDTA; binding 10 min at 25 C, native PAGE; smTIRFM: 100 pM tethered DNA, 100-5000 pM protein, buffer; conditions: protein: recombinant; tags: N-terminal FLAG-6xHis; label: 3' biotin on strand 2; 18 bp duplex with 3' ssDNA tail folded as parallel G4
T6 chain: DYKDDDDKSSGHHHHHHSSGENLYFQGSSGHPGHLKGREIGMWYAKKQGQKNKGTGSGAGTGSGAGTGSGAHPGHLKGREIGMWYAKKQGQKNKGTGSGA

2FJG4P [8] = target: T4, 2FJG4P; assay: smTIRFM (koff/kon); kon 4.7e9 M-1 s-1, koff 1.0 s-1; EMSA: DNA annealed in 200 mM Tris pH 7.4, 100 mM KCl, 1 mM EDTA; binding 10 min at 25 C, native PAGE; smTIRFM: 100 pM tethered DNA, 100-5000 pM protein, buffer; conditions: protein: recombinant; tags: N-terminal FLAG-6xHis; label: 3' biotin on strand 2; 18 bp duplex with 3' ssDNA tail folded as parallel G4
FJG4P [9] = target: T7, FJG4P (artificial (motif derived from human …)); assay: smTIRFM (koff/kon); kon 3.45e9 M-1 s-1, koff 0.94 s-1; EMSA: DNA annealed in 200 mM Tris pH 7.4, 100 mM KCl, 1 mM EDTA; binding 10 min at 25 C, native PAGE; smTIRFM: 100 pM tethered DNA, 100-5000 pM protein, buffer; conditions: protein: recombinant; tags: N-terminal FLAG-6xHis; label: 3' biotin on strand 2; 18 bp duplex with 3' ssDNA tail folded as parallel G4
T7 chain: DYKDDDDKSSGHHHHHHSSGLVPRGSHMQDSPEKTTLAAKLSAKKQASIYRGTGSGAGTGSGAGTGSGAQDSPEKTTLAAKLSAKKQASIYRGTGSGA

G4P [10] = target: T6, G4P; assay: smTIRFM (koff/kon); kon 0.43e9 M-1 s-1, koff 0.67 s-1; EMSA: DNA annealed in 200 mM Tris pH 7.4, 100 mM KCl, 1 mM EDTA; binding 10 min at 25 C, native PAGE; smTIRFM: 100 pM tethered DNA, 100-5000 pM protein, buffer; conditions: protein: recombinant; tags: N-terminal FLAG-6xHis; label: 3' biotin on strand 2; 18 bp duplex with 3' ssDNA tail folded as G4, mixed topology
2FJG4P [11] = target: T4, 2FJG4P; assay: smTIRFM (koff/kon); kon 0.0339e9 M-1 s-1, koff 0.4 s-1; EMSA: DNA annealed in 200 mM Tris pH 7.4, 100 mM KCl, 1 mM EDTA; binding 10 min at 25 C, native PAGE; smTIRFM: 100 pM tethered DNA, 100-5000 pM protein, buffer; conditions: protein: recombinant; tags: N-terminal FLAG-6xHis; label: 3' biotin on strand 2; 18 bp duplex with 3' ssDNA tail folded as G4, mixed topology
2G4P [12] = target: T5, 2G4P; assay: smTIRFM (koff/kon); kon 0.0845e9 M-1 s-1, koff 0.29 s-1; EMSA: DNA annealed in 200 mM Tris pH 7.4, 100 mM KCl, 1 mM EDTA; binding 10 min at 25 C, native PAGE; smTIRFM: 100 pM tethered DNA, 100-5000 pM protein, buffer; conditions: protein: recombinant; tags: N-terminal FLAG-6xHis; label: 3' biotin on strand 2; 18 bp duplex with 3' ssDNA tail folded as G4, mixed topology
FJG4P [13] = target: T7, FJG4P; assay: smTIRFM (koff/kon); kon 0.01e9 M-1 s-1, koff 0.33 s-1; EMSA: DNA annealed in 200 mM Tris pH 7.4, 100 mM KCl, 1 mM EDTA; binding 10 min at 25 C, native PAGE; smTIRFM: 100 pM tethered DNA, 100-5000 pM protein, buffer; conditions: protein: recombinant; tags: N-terminal FLAG-6xHis; label: 3' biotin on strand 2; 18 bp duplex with 3' ssDNA tail folded as G4, mixed topology
FJG4P [14] = target: T7, FJG4P; assay: EMSA; EMSA: DNA annealed in 200 mM Tris pH 7.4, 100 mM KCl, 1 mM EDTA; binding 10 min at 25 C, native PAGE; smTIRFM: 100 pM tethered DNA, 100-5000 pM protein, buffer; conditions: protein: recombinant; tags: N-terminal FLAG-6xHis; label: 3' 6-FAM; intramolecular parallel G4
2G4P [15] = target: T5, 2G4P; assay: as above; conditions: protein: recombinant, tags: N-terminal FLAG-6xHis
G4P [16] = target: T6, G4P; assay: as above; conditions: protein: recombinant, tags: N-terminal FLAG-6xHis
2FJG4P [17] = target: T4, 2FJG4P; assay: as above; conditions: protein: recombinant; tags: N-terminal FLAG-6xHis; label: 3' 6-FAM; intramolecular parallel G4
FJG4P [18] = target: T7, FJG4P; assay: EMSA; no detectable binding; EMSA: DNA annealed in 200 mM Tris pH 7.4, 100 mM KCl, 1 mM EDTA; binding 10 min at 25 C, native PAGE; smTIRFM: 100 pM tethered DNA, 100-5000 pM protein, buffer; conditions: protein: recombinant; tags: N-terminal FLAG-6xHis; label: 5' fluorescein; intramolecular G4, mixed topology
2FJG4P [19] = target: T4, 2FJG4P; assay: mass photometry; higher molecular weight complexes; EMSA: DNA annealed in 200 mM Tris pH 7.4, 100 mM KCl, 1 mM EDTA; binding 10 min at 25 C, native PAGE; smTIRFM: 100 pM tethered DNA, 100-5000 pM protein, buffer; conditions: protein: recombinant; tags: N-terminal FLAG-6xHis; G4, mixed topology
[20] = label: 3' 6-FAM, intramolecular parallel G4
[21] = label: 5' fluorescein, intramolecular G4, mixed topology

Molecule: TGGCGACGGCAGCGAGGCTTAGGGTTAGGGTTAGGGTTTAGGGTTAGGGTTAGGGTTAGGGTTTAGGGTTAGGG / GCCTCGCTGCCGTCGCCA [2hTelG4 (smTIRFM tethering)]
- Kd [1]: 0.0019 µM
- Kd [2]: 0.0046 µM
- Kd [3]: 0.0145 µM

B1: 2hTelG4 (mass photometry) (structured_DNA)
DNA: TTAGGGTTAGGGTTAGGGTTTAGGGTTAGGGTTAGGGTTAGGGTTAGGGTTTAGGGTTAGGG
- binding result (2FJG4P [4]): binds
- binding result (2G4P [5]): binds

B2: c-MYCG4 (smTIRFM tethering) (mixed)
DNA 1: TGGCGACGGCAGCGAGGCTGGGTGGGTAGGGTGGGTTT
DNA 2: GCCTCGCTGCCGTCGCCA
- Kd (2G4P [6]): 0.00016 ± 1e-05 µM
- Kd (G4P [7]): 0.00022 ± 2e-05 µM
- Kd (2FJG4P [8]): 0.0002 ± 1e-05 µM
- Kd (FJG4P [9]): 0.00027 ± 3e-05 µM

B3: hTelG4 (smTIRFM tethering) (mixed)
DNA 1: TGGCGACGGCAGCGAGGCTTAGGGTTAGGGTTAGGGTTTAGGGTTAGGG
DNA 2: GCCTCGCTGCCGTCGCCA
- Kd (G4P [10]): 0.0016 ± 0.0001 µM
- Kd (2FJG4P [11]): 0.0107 ± 0.0017 µM
- Kd (2G4P [12]): 0.0034 ± 0.0003 µM
- Kd (FJG4P [13]): 0.0327 ± 0.0048 µM

B4: c-MYCG4 (EMSA) (structured_DNA)
DNA: TGGGTGGGTAGGGTGGGTTT
- Kd (FJG4P [14]): 0.11 ± 0.0589 µM
- Kd (2G4P [15]; [20]): 0.0277 ± 0.004 µM
- Kd (G4P [16]; [20]): 0.0841 ± 0.008 µM
- Kd (2FJG4P [17]): 0.131 ± 0.063 µM

B5: hTelG4 (EMSA) (structured_DNA)
DNA: TTAGGGTTAGGGTTAGGGTTTAGGGTTAGGG
- Kd (2G4P [15]; [21]): 0.0862 ± 0.006 µM
- Kd (G4P [16]; [21]): 0.558 ± 0.157 µM
- binding result (FJG4P [18]): no binding

B6: hTelG4 (mass photometry) (structured_DNA)
DNA: TTAGGGTTAGGGTTAGGGTTTAGGGTTAGGG
- binding result (2FJG4P [19]): binds
